What is called Km is the substrate concentration at which the rate is half of its maximum. The term Vmax denotes the top rate of the reaction or transport when substrate is in excess. The term kcat denotes the maximal rate divided by the concentration of active sites. By kcat/Km is commonly meant the second-order rate constant that governs catalysis at low substrate concentration.

One data set deals with AcLIS/NES. The data set is described as follows: SPME GC-MS of major terpene product, Michaelis-Menten fit. To be noted: 50 mM Bis-Tris propane pH 7.5, 10 mM MgCl2, 30 °C. Type of data set: biochemical, Actinidia chinensis var. chinensis. An excerpt: SPME GC-MS of major terpene product, Michaelis-Menten fit on AcLIS/NES
Substrate in data set [1]: CC(C)=CCC/C(C)=C/CC/C(C)=C/CO[P@@](=O)(O)OP(=O)(O)O
Described as above. Type of data set: biochemical, Actinidia chinensis. To be noted: 50 mM Bis-Tris propane pH 7.5, 10 mM MgCl2, 30 °C. The text has this:
SPME GC-MS of major terpene product, Michaelis-Menten fit on AcBCS

As for `CC(C)=CCC/C(C)=C/COP(=O)(O)OP(=O)(O)O` [GDP], the Km in the data set with AcLIS/NES came to 30.9 ± 3.81 µM.

On to `CC(C)=CCC/C(C)=C/CC/C(C)=C/COP(=O)(O)OP(=O)(O)O` [FDP], for which the Km in the data set with AcLIS/NES was 7.43 ± 1.25 µM.

B1: AcBCS (Actinidia chinensis var. chinensis) (protein)
chain: MAISCATALPIPTVSTKITMEPLVTRRSANYHPSIWGDHFLAYSSLPTEVDVNMEQEQLHQLKQKVIKMLMAAADKPSQMLNLIDRIQRLGVSYHFKTEIEAALKHIYESDHHFDDLYTVALFFRLLRQQGFPVSCEVFNKFKNNQGKFQECLIGDVVGILCLYEATHLRVRGEEILDEALSFTTTHLESMVPNLSNPVAEHAIHALNQPIHKGLTRLDARQYISFYEQDDSHNKDLLNFAKLDFNLLQKLHQRELCEITRWWKDLDFAKKLPFARDRLVESYFWVLGVYFEPQYWLARRILTKVIAMSSVIDDIYDVYGTLEELALFTDAIERWEISSLDKLPEYMKLCYQALLDIYSTIDEEMAKQGGSYRVYYAKSEMKNLVRGYFEEAKWFHQGYVPSMEEYMQVALLSSGYKMVTTTSFVGMGELATKEAFDWVSSYPLIVEAVSAIARLTDDIVGHKFEQQRGHVASAVECYMKQNGATEEEAIVELYEQVTNAWKDMNAECLYSTKVPMPLLVRVLNLARVINVLYKDEDSYTHSGTRTKNFVTSVLIDSVPIN
For the molecule B1, in data set [1], the Km stood at 1.54 ± 0.54 µM, the Vmax stood at 0.013 µM/min, the kcat came to 0.0087 ± 0.002 s⁻¹ and the kcat/Km was 5870 ± 1100 M⁻¹ s⁻¹.

The record behind these values is PMC10514967, “The terpene synthase (TPS) gene family in kiwifruit shows high functional redundancy and a subset of TPS likely fulfil overlapping functions in fruit flavour, floral bouquet and defence” (Molecular Horticulture, 2023).
